The values that follow come from PMC7407159.

This experiment deals with T1, histidine tagged full length homo sapiens mitofusin 1 (hsMfn1) (human), Q8IWA4.
T1 chain: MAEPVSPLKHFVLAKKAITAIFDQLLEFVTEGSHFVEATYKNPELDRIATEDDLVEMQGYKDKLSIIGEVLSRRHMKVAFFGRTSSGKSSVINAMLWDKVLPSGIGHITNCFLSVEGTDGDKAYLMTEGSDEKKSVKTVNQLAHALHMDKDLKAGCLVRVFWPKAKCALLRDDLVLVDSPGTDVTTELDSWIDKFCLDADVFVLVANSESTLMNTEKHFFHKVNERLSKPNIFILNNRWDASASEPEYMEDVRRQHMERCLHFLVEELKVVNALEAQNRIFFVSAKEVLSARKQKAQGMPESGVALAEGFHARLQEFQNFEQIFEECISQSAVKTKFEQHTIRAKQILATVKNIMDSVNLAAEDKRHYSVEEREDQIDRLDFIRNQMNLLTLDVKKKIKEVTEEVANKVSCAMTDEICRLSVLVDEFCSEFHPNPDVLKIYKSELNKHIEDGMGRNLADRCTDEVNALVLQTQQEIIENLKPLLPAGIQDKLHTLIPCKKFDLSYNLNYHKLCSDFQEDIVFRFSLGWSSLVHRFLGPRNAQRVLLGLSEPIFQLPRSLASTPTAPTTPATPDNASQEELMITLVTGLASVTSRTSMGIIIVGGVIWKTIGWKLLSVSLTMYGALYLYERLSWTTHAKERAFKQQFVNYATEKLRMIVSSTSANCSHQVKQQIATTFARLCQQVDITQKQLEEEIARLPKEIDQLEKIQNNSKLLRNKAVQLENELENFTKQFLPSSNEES
The experiment can be described thus: vesicle adhesion (shape of adhered GUV doublets by confocal microscopy), adhesion strength fitted to a cooperative binding model; His-Mfn1 (detergent resistant fraction of Mfn1-IMVs) bound by its histidine tag to POPC/DOGS-NTA GUVs with 10, 15, 20 and 25 mol% DOGS-NTA; 10 mM GDP, 2.5 mM …; 22 °C; Eadh against [NTA] fitted to Equation (6); two-dimensional binding equilibrium constant for planar membranes, Mfn1 with …. The settings on record: remark: other sources report otherwise.

B1: histidine tagged full length homo sapiens mitofusin 1 (hsMfn1), Q8IWA4 1-741 (natural protein)
chain: T1 chain
In turn, B1 displayed a two-dimensional binding equilibrium constant for planar membranes (K2D' of Equation 6, printed as KD') (nm^2 per molecule) of 0.1.
